Measured values published in patent publication US20120189639A1 (Merck Sharp & Dohme, published 2012).
Numbering of substitutions follows the chain as printed.

T1: hGITR-hIgG (human, UniProt Q9Y5U5 26-161, limits assumed)
T1 construct: not shown: human IgG part of the fusion
T1 sequence: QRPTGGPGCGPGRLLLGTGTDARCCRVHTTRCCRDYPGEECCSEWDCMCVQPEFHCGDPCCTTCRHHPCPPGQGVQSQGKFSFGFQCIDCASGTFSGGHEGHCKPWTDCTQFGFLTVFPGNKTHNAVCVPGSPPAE

T2: human GITR on naïve CD4+ T cells (human, UniProt Q9Y5U5 26-241)
T2 sequence: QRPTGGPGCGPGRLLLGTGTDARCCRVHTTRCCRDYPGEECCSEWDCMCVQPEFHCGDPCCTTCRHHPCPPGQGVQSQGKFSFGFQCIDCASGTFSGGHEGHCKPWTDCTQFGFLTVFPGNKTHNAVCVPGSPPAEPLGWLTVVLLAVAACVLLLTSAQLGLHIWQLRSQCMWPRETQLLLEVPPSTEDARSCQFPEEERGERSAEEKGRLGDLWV

B1: 9E5 (antibody, V domains shown)
VH: QVTLKESGPGILQPSQTLSLTCTFSGFSLSTYGVGVGWIRQPSGKGLEWLANIWWDDDNYYNPSLIHRLTVSKDTSNNQAFLKITNVDTAETATYYCAQIKEPRDWFFEFWGPGTMVSVSS
VL: DIQMTQTPSSMPASLGERVTIFCRASQGVNNFLTWYQQKPDGTIKPLIFYTSNLQSGVPSRFSGSGSGTDYSLSISSLEPEDFAMYYCQQYHGFPNTFGAGTKLELKR
notes: Parental rodent anti-human GITR monoclonal antibody from a hybridoma; kappa VL; also called 9E5.C1
B2: 31H6 (antibody, V domains shown)
VH: B1 VH with N59K, I66K, H67N, V71I
VL: B1 VL with F32Y
notes: Parental rodent anti-human GITR monoclonal antibody from a hybridoma; kappa VL; also called 31H6.B7
B3: 36E5 (antibody, V domains shown)
VH: EVNLVESGGGLVKPGGSLKVSCAASGFTFSSYAMSWVRQTPEKRLEWVASISSGGTTYYPDSVKGRFTISRDNARNILYLQMSSLRSEDTAMYYCARVGGYYDSMDYWGQGISVTDSS
VL: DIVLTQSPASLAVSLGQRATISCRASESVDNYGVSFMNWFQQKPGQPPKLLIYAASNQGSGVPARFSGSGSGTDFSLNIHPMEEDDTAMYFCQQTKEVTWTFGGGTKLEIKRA
notes: Parental rodent anti-human GITR monoclonal antibody from a hybridoma; kappa VL; also called 36E5.A5
B4: 1D8 (antibody, V domains shown)
VH: QVTLKESGPGILKPSQTLSLTCSFSGFSLSTSGMGVGWIRQPSGKGLEWLAHIWWDDDKYYSPSLKSQLTISKDTSRNQVFLKITSLDTADTATYYCVRSYYYGSSGAMDYWGQGTSVTVSS
VL: DIVMTQTPLSLPVSLGDQASISCRSSQSLVHSDGNTYLHWYLQKPGQSPKLLIYKVSKRFSGVPDRFSGSGSGTDFTLKISRVEAEDLGVYFCSQSTHVPPTFGGGTKLEIKR
notes: Parental rodent anti-human GITR monoclonal antibody from a hybridoma; kappa VL; also called 1D8.B5
B5: 35D8 (antibody, V domains shown)
VH: EVQLQESGPSLVKPSQTLSLTCSVTGDSITSGYWNWIRKFPGNKLEYMGYISYSGSTYYNPSLRGRISITRDTSKSQYYLQLSSVTTEDTATYYCSRRHLGSGYGWFAYWGQGTLVTVSA
VL: DIVMTQSHKFMSTSVGDRVSITCKASQDVNTAVAWYQQKPGQSPKLLIYWASTRHTGVPDRFTGSGSGTDYALTINSVQAEDLALYYCQQHSYTPPWTFGGGTKLEIRR
notes: Parental rodent anti-human GITR monoclonal antibody from a hybridoma; kappa VL; also called 35D8.B10

Each binder was assayed against T1, hGITR-hIgG (assay: BIAcore SPR; hGITR-hIgG capture antigen, mAb analyte; apparent Kd).
Protocol: (§1) BIAcore determinations are performed essentially as described at Example 4 of co-pending, commonly assigned U.S. patent application Ser. No. 11/511,635 (filed 29 Aug. 2006). Briefly, binding partners are immobilized on a BIAcore CM5 sensor chip using standard amine-coupling procedure. Kinetic constants for the various interactions are determined using BIAevaluation software 3.1. The Kd is determined using the calculated dissociation and association rate constants.

| Binder | Kd [pM] |
| --- | --- |
| B1 | 12 |
| B2 | ≤ 5 |
| B3 | 205 |
| B4 | 458 |
| B5 | 250 |

Each binder was assayed against T2, human GITR on naïve CD4+ T cells (assay: cell-based or functional assay).

| Binder | proliferation of naïve CD4+ T cells, mean, at 0.04 ng/mL Ab | proliferation of naïve CD4+ T cells, mean, at 0.15 ng/mL Ab | proliferation of naïve CD4+ T cells, mean, at 0.61 ng/mL Ab | proliferation of naïve CD4+ T cells, mean, at 2.4 ng/mL Ab | proliferation of naïve CD4+ T cells, mean, at 9.8 ng/mL Ab | proliferation of naïve CD4+ T cells, mean, at 39.1 ng/mL Ab | proliferation of naïve CD4+ T cells, mean, at 156 ng/mL Ab | proliferation of naïve CD4+ T cells, mean, at 625 ng/mL Ab | proliferation of naïve CD4+ T cells, mean, at 2500 ng/mL Ab | proliferation of naïve CD4+ T cells, mean, at 10000 ng/mL Ab |
| --- | --- | --- | --- | --- | --- | --- | --- | --- | --- | --- |
| B3 | 27500 | 26200 | 31000 | 47500 | 78700 | 90300 | 97100 | 82100 | 71800 | 83800 |

Target: T2, human GITR on naïve CD4+ T cells
Test: cell-based or functional assay
Remark: another data set of the same source

| Binder | proliferation of naïve CD4+ T cells, mean, at 0.4 ng/mL Ab | proliferation of naïve CD4+ T cells, mean, at 0.9 ng/mL Ab | proliferation of naïve CD4+ T cells, mean, at 2.2 ng/mL Ab | proliferation of naïve CD4+ T cells, mean, at 5.2 ng/mL Ab | proliferation of naïve CD4+ T cells, mean, at 12.6 ng/mL Ab | proliferation of naïve CD4+ T cells, mean, at 30.1 ng/mL Ab | proliferation of naïve CD4+ T cells, mean, at 72.3 ng/mL Ab | proliferation of naïve CD4+ T cells, mean, at 173.6 ng/mL Ab | proliferation of naïve CD4+ T cells, mean, at 416.7 ng/mL Ab | proliferation of naïve CD4+ T cells, mean, at 1000.0 ng/mL Ab |
| --- | --- | --- | --- | --- | --- | --- | --- | --- | --- | --- |
| B1 | 60100 | 60900 | 69200 | 77700 | 85700 | 83400 | 85300 | 84600 | 79700 | 83600 |
| B2 | 58500 | 57000 | 67600 | 79600 | 90500 | 94700 | 98600 | 96900 | 86900 | 87500 |
| B4 | 60800 | 64800 | 78500 | 98200 | 115000 | 112000 | 103000 | 91000 | – | – |
| B5 | 52300 | 50700 | 59800 | 71400 | 86200 | 95300 | 92400 | 96200 | 89800 | 97300 |

These binders were tested against T1, hGITR-hIgG (assay: BIAcore SPR; hGITR-hIgG capture antigen, mAb analyte).
Protocol: as §1

| Binder | koff [s⁻¹] | kon [M⁻¹ s⁻¹] |
| --- | --- | --- |
| B1 | 2.7e-05 | 2.33e+06 |
| B2 | 7e-06 | 1.57e+06 |
| B3 | 0.000177 | 864000 |
| B4 | 0.000196 | 428000 |
| B5 | 0.0002 | 801000 |
